Reference: the supplement of paper PMC6757056
± gives the standard deviation of the averaged measurements.

B1: library; a variant is named by its letters at N, in order (parent)
chain: GCUGUCACCGGUGUAUUACCCUAGUGGUCGACCGGUCUGAUGAGUCUNNNNNNAGACGAAACAGC

Columns and labels:
hypoxanthine [1] = variants of: B1; experiment: normalized RNA/DNA level with ligand (relative to sTRSVctl = 100) (log10 (% of sTRSVctl)); ligand: hypoxanthine (xanthine aptamer); higher = less ribozyme self-cleavage, higher mRNA level; conditions: ligand concentration (+) RNA-Seq: 5 mM, HEK293T, reporter: mCherry (pCS4076), ligand present: yes
Procedure, shortened: (§1)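 For each 6-well well, 4 µg of library plasmid encoding mCherry-linked ribozyme switches, or eGFP-linked ones in some ligand experiments, was transfected into HEK293T. Any ligand was added 1 h before transfection, and RNA was extracted with EDTA 72 h after it, then reverse-transcribed, amplified, barcoded and sequenced. RNA level was obtained by dividing RNA reads by DNA reads, normalizing to a spiked-in non-cleaving sequence or to the top sequences, then scaling and log-transforming. The top set was 25 sequences, scaling was ×100 with log10, and ≥100 DNA reads were required.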

hypoxanthine [2] = variants of: B1; experiment: normalized RNA/DNA level without ligand (relative to sTRSVctl = 100) (log10 (% of sTRSVctl)); ligand: hypoxanthine (xanthine aptamer); higher = less ribozyme self-cleavage, higher mRNA level; conditions: HEK293T, reporter: mCherry (pCS4076), ligand present: no
Procedure, shortened: as §1

Variant | normalized RNA/DNA level with ligand (log10) (hypoxanthine [1]) | normalized RNA/DNA level without ligand (log10) (hypoxanthine [2])
GCUGUCACCGGUGUAUUACCCUAGUGGUCGACCGGUCUGAUGAGUCUCAGUCUAGACGAAACAGC [CAGUCU] | 1.98 ± 0.005 | 1.792 ± 0.016
GCUGUCACCGGUGUAUUACCCUAGUGGUCGACCGGUCUGAUGAGUCUCAGUCCAGACGAAACAGC [CAGUCC] | 1.984 ± 0.0083 | 1.88 ± 0.024
GCUGUCACCGGUGUAUUACCCUAGUGGUCGACCGGUCUGAUGAGUCUCAGUCGAGACGAAACAGC [CAGUCG] | 1.98 ± 0.025 | 1.888 ± 0.0091
GCUGUCACCGGUGUAUUACCCUAGUGGUCGACCGGUCUGAUGAGUCUCAGUCAAGACGAAACAGC [CAGUCA] | 1.93 ± 0.025 | 1.6768 ± 0.0013
GCUGUCACCGGUGUAUUACCCUAGUGGUCGACCGGUCUGAUGAGUCUAAGUCCAGACGAAACAGC [AAGUCC] | 1.893 ± 0.016 | 1.81 ± 0.072
GCUGUCACCGGUGUAUUACCCUAGUGGUCGACCGGUCUGAUGAGUCUUAGGCGAGACGAAACAGC [UAGGCG] | 1.892 ± 0.01 | 1.67 ± 0.037
GCUGUCACCGGUGUAUUACCCUAGUGGUCGACCGGUCUGAUGAGUCUUAGGCUAGACGAAACAGC [UAGGCU] | 1.957 ± 0.013 | 1.89 ± 0.027
GCUGUCACCGGUGUAUUACCCUAGUGGUCGACCGGUCUGAUGAGUCUUAGGCAAGACGAAACAGC [UAGGCA] | 1.905 ± 0.01 | 1.812 ± 0.0025
GCUGUCACCGGUGUAUUACCCUAGUGGUCGACCGGUCUGAUGAGUCUUAGUACAGACGAAACAGC [UAGUAC] | 1.94 ± 0.031 | 1.81 ± 0.035
GCUGUCACCGGUGUAUUACCCUAGUGGUCGACCGGUCUGAUGAGUCUUAGUAAAGACGAAACAGC [UAGUAA] | 1.939 ± 0.016 | 1.77 ± 0.022
GCUGUCACCGGUGUAUUACCCUAGUGGUCGACCGGUCUGAUGAGUCUUAGUAUAGACGAAACAGC [UAGUAU] | 1.93 ± 0.041 | 1.761 ± 0.015
GCUGUCACCGGUGUAUUACCCUAGUGGUCGACCGGUCUGAUGAGUCUAAGGUCAGACGAAACAGC [AAGGUC] | 1.95 ± 0.08 | 1.89 ± 0.016
GCUGUCACCGGUGUAUUACCCUAGUGGUCGACCGGUCUGAUGAGUCUGAGGGUAGACGAAACAGC [GAGGGU] | 1.93 ± 0.032 | 1.689 ± 0.014
GCUGUCACCGGUGUAUUACCCUAGUGGUCGACCGGUCUGAUGAGUCUGAGGGAAGACGAAACAGC [GAGGGA] | 1.9 ± 0.053 | 1.52 ± 0.022
GCUGUCACCGGUGUAUUACCCUAGUGGUCGACCGGUCUGAUGAGUCUGAGGGGAGACGAAACAGC [GAGGGG] | 1.814 ± 0.015 | 1.34 ± 0.033
GCUGUCACCGGUGUAUUACCCUAGUGGUCGACCGGUCUGAUGAGUCUAAGGCCAGACGAAACAGC [AAGGCC] | 1.96 ± 0.066 | 1.9104 ± 0.0016
GCUGUCACCGGUGUAUUACCCUAGUGGUCGACCGGUCUGAUGAGUCUAAGGCAAGACGAAACAGC [AAGGCA] | 1.94 ± 0.035 | 1.64 ± 0.043
GCUGUCACCGGUGUAUUACCCUAGUGGUCGACCGGUCUGAUGAGUCUAAGGCUAGACGAAACAGC [AAGGCU] | 1.9 ± 0.032 | 1.83 ± 0.05
GCUGUCACCGGUGUAUUACCCUAGUGGUCGACCGGUCUGAUGAGUCUGAGGCCAGACGAAACAGC [GAGGCC] | 2.03 ± 0.031 | 1.93 ± 0.023
GCUGUCACCGGUGUAUUACCCUAGUGGUCGACCGGUCUGAUGAGUCUGAGUCCAGACGAAACAGC [GAGUCC] | 2.015 ± 0.017 | 1.853 ± 0.013
GCUGUCACCGGUGUAUUACCCUAGUGGUCGACCGGUCUGAUGAGUCUGAGUCGAGACGAAACAGC [GAGUCG] | 1.84 ± 0.019 | 1.38 ± 0.02

Variant | normalized RNA/DNA level with ligand (log10) (hypoxanthine [1]) | normalized RNA/DNA level without ligand (log10) (hypoxanthine [2])
GCUGUCACCGGUGUAUUACCCUAGUGGUCGACCGGUCUGAUGAGUCUGAGUCUAGACGAAACAGC [GAGUCU] | 1.96 ± 0.026 | 1.84 ± 0.01
GCUGUCACCGGUGUAUUACCCUAGUGGUCGACCGGUCUGAUGAGUCUCAGGCGAGACGAAACAGC [CAGGCG] | 1.96 ± 0.035 | 1.837 ± 0.0025
GCUGUCACCGGUGUAUUACCCUAGUGGUCGACCGGUCUGAUGAGUCUCAGGCCAGACGAAACAGC [CAGGCC] | 2 ± 0.027 | 2 ± 0.032
GCUGUCACCGGUGUAUUACCCUAGUGGUCGACCGGUCUGAUGAGUCUCAGGCUAGACGAAACAGC [CAGGCU] | 1.938 ± 0.0094 | 1.919 ± 0.0073
GCUGUCACCGGUGUAUUACCCUAGUGGUCGACCGGUCUGAUGAGUCUCAGGCAAGACGAAACAGC [CAGGCA] | 1.912 ± 0.008 | 1.68 ± 0.069
GCUGUCACCGGUGUAUUACCCUAGUGGUCGACCGGUCUGAUGAGUCUUAGGUUAGACGAAACAGC [UAGGUU] | 1.961 ± 0.0077 | 1.85 ± 0.015
GCUGUCACCGGUGUAUUACCCUAGUGGUCGACCGGUCUGAUGAGUCUUAGGUAAGACGAAACAGC [UAGGUA] | 1.96 ± 0.033 | 1.84 ± 0.036
GCUGUCACCGGUGUAUUACCCUAGUGGUCGACCGGUCUGAUGAGUCUCAGUACAGACGAAACAGC [CAGUAC] | 1.898 ± 0.0032 | 1.668 ± 0.015
GCUGUCACCGGUGUAUUACCCUAGUGGUCGACCGGUCUGAUGAGUCUCAGUAAAGACGAAACAGC [CAGUAA] | 1.855 ± 0.012 | 1.53 ± 0.081
GCUGUCACCGGUGUAUUACCCUAGUGGUCGACCGGUCUGAUGAGUCUUAGGGAAGACGAAACAGC [UAGGGA] | 1.861 ± 0.011 | 1.49 ± 0.035
GCUGUCACCGGUGUAUUACCCUAGUGGUCGACCGGUCUGAUGAGUCUUAGGGCAGACGAAACAGC [UAGGGC] | 1.962 ± 0.01 | 1.88 ± 0.057
GCUGUCACCGGUGUAUUACCCUAGUGGUCGACCGGUCUGAUGAGUCUUAGUCGAGACGAAACAGC [UAGUCG] | 1.924 ± 0.013 | 1.737 ± 0.0043
GCUGUCACCGGUGUAUUACCCUAGUGGUCGACCGGUCUGAUGAGUCUCAGGGCAGACGAAACAGC [CAGGGC] | 1.99 ± 0.056 | 1.84 ± 0.052
GCUGUCACCGGUGUAUUACCCUAGUGGUCGACCGGUCUGAUGAGUCUCAGGGAAGACGAAACAGC [CAGGGA] | 1.95 ± 0.04 | 1.781 ± 0.014
GCUGUCACCGGUGUAUUACCCUAGUGGUCGACCGGUCUGAUGAGUCUCAGGGUAGACGAAACAGC [CAGGGU] | 1.884 ± 0.017 | 1.75 ± 0.021
GCUGUCACCGGUGUAUUACCCUAGUGGUCGACCGGUCUGAUGAGUCUCAGGUCAGACGAAACAGC [CAGGUC] | 1.94 ± 0.015 | 1.874 ± 0.011
GCUGUCACCGGUGUAUUACCCUAGUGGUCGACCGGUCUGAUGAGUCUCAGGUGAGACGAAACAGC [CAGGUG] | 1.9 ± 0.025 | 1.77 ± 0.03
GCUGUCACCGGUGUAUUACCCUAGUGGUCGACCGGUCUGAUGAGUCUCAGGUUAGACGAAACAGC [CAGGUU] | 1.975 ± 0.0057 | 1.86 ± 0.0041
GCUGUCACCGGUGUAUUACCCUAGUGGUCGACCGGUCUGAUGAGUCUGAGGUCAGACGAAACAGC [GAGGUC] | 2 ± 0.043 | 1.843 ± 0.016
GCUGUCACCGGUGUAUUACCCUAGUGGUCGACCGGUCUGAUGAGUCUGAGGUAAGACGAAACAGC [GAGGUA] | 1.862 ± 0.011 | 1.673 ± 0.0085
GCUGUCACCGGUGUAUUACCCUAGUGGUCGACCGGUCUGAUGAGUCUGAGGUUAGACGAAACAGC [GAGGUU] | 1.97 ± 0.035 | 1.86 ± 0.023
